Data on 56 substances can be found in the supplement of paper PMC12042874.

± gives the uncertainty stated by the source.

This series can be described thus: amyloid nucleation score (Sup35N fusion, yeast selection) (log enrichment); library NNK2; higher = more nucleation; inactive = no reads after selection. The gist of the method:
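DiMSum was used to calculate nucleation scores as log enrichment of output over input reads, centred on the mode score of non-aggregating sequences. Sequences with fewer than 100 input reads were not scored. Input and output came from Illumina sequencing of plasmid inserts in psi-negative yeast expressing peptides of 20 random codons fused to Sup35N, induced 24 hours with 100 μM copper sulfate and then grown 7 days at 30°C on medium lacking adenine and uracil.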
Substance GCIGGHRFYSPRSNSVFEVG showed an amyloid nucleation score of 3.44 ± 0.081.

Take FRSMFISWVM: the amyloid nucleation score is -0.271 ± 1.

ILSLRNR yielded an amyloid nucleation score of -0.965 ± 1.

In the case of ILQGADLKLVYFVNHRMERV, the amyloid nucleation score was 1.24 ± 0.21.

For the substance YLHLSQTQWLGLIFNRRSFD, the amyloid nucleation score came to 3.62 ± 0.068.

Consider PCLMVIRRWMITVFYQKLSG, for which the amyloid nucleation score came out at 0.181 ± 0.2.

AFRMLITGPGNS registered an amyloid nucleation score of -1.07 ± 0.49.

HVVGVNLYRTLGRVFHLWDS: the amyloid nucleation score was -0.084 ± 0.76.

Substance MVEHLCNNHSRFLYSAWGIE returned an amyloid nucleation score of -0.641 ± 0.56.

LVYWRQYYCKGRVRLLC: the amyloid nucleation score result was “inactive”.

Take TFGYCISLMTLTFVH: the amyloid nucleation score was -0.239 ± 0.28.

Substance QQYPWYWIFIFNIYKYPSVS came in with an amyloid nucleation score of 0.475 ± 0.42.

Turning to GAVRVYNYNYQEVKTLLLVE, the amyloid nucleation score was -0.425 ± 0.32.

The substance WKSCWLGIWSEGIYILGEET showed an amyloid nucleation score of -0.284 ± 1.1.

In turn, LAVLGIYDTLLYCHTVLYEI had an amyloid nucleation score of -0.302 ± 0.36.

On to LCWPIFNFVFVSNPMLKLRL, for which the amyloid nucleation score entry was “inactive”.

On to FLNKDGNIV, for which the amyloid nucleation score is -0.022 ± 0.55.

For the substance YNSTALKVSWRVRLGPWNWI, the amyloid nucleation score is -0.06 ± 1.1.

On to NKLPDSFRSALSFY, for which the amyloid nucleation score result was “inactive”.

In the case of KSRNYIFSGYELVASPSSVK, the amyloid nucleation score result is “inactive”.

On to FLDWVLSD, for which the amyloid nucleation score result is “inactive”.

In turn, VSTRILSCSNEFCYIIGAMV came in with an amyloid nucleation score of 2.59 ± 0.15.

Consider YRFRSLSM, for which the amyloid nucleation score is -1.14 ± 0.4.

On to LLCMVIMVGFYSRSAGNTDQ, for which the amyloid nucleation score amounted to 0.696 ± 0.6.

Substance RRYKVDYTPSCIESPGVVLA gave an amyloid nucleation score of -1.19 ± 0.78.

Turning to ISVRVFNRNT, the amyloid nucleation score is 3.15 ± 0.078.

As for SMSMYTPNFFDFVVVRPTIY, the amyloid nucleation score result is “inactive”.

For LWSGFLSFVSNVPTFLYLS, the amyloid nucleation score is -2.01 ± 0.41.

In turn, HSLKNYSGYLLLRTNRCI returned an amyloid nucleation score of 0.135 ± 0.65.

As for LTSISYIIGDRWSIEVGRVF, the amyloid nucleation score was -0.337 ± 1.1.

HLMLFDMTASLLHSHNVSRP: the amyloid nucleation score amounted to 5.63 ± 0.058.

VDTSYITCITRLSPYIKVVL: the amyloid nucleation score was -0.477 ± 0.79.

FIFRMHAFNGIRLWCV registered an amyloid nucleation score of 1.38 ± 0.22.

The substance PGHSWMMSDDPDRYMNNLTV displayed an amyloid nucleation score of -0.053 ± 0.79.

Consider NMCQPMCVIVDWIIFISCVG, for which the amyloid nucleation score was 2.49 ± 0.063.

Turning to RTPCVHMPHAVSLGLVALLL, the amyloid nucleation score was -0.318 ± 0.76.

Substance KDWGFRNTCG came in with an amyloid nucleation score of -0.184 ± 1.1.

Substance FMSGGVVYSLMTGTR returned an amyloid nucleation score of 0.388 ± 0.36.

Regarding SVGQMQLT, the amyloid nucleation score was 0.707 ± 0.35.

In turn, VGGWSLYSSPVLLRIWFKRH gave an amyloid nucleation score of 0.087 ± 0.79.

With VMILGVYKNFMLIFELVPVY, the amyloid nucleation score was -1.01 ± 0.76.

On to VKLIGKITELGKNRMLMLWT, for which the amyloid nucleation score was 0.429 ± 0.28.

Consider GTLMTCVGG, for which the amyloid nucleation score entry was “inactive”.

As to MYCLVYHQIYSDSHA, the amyloid nucleation score is 3.91 ± 0.05.

In turn, LRSRVSSSLSYKLLFRTNVL had an amyloid nucleation score of -0.175 ± 0.49.

Consider VTRDARRDSQGDKVV, for which the amyloid nucleation score is 1.02 ± 0.17.

As for VGCIYSFWEWVFKQPVRSRK, the amyloid nucleation score entry is “inactive”.

For GPLSNLYTKYDANENDGFIL, the amyloid nucleation score is -0.321 ± 0.41.

WFPRSNAYLCMCFFVLREYQ yielded an amyloid nucleation score of 0.428 ± 0.66.

For the substance FINRPVKRKLNSSNIYICV, the amyloid nucleation score is 3.16 ± 0.14.

Substance CFIPLGVNFGDRTWLTVRIR yielded an amyloid nucleation score of 0.357 ± 0.41.

As for RMIYGSRRFDVDIFYFGIRN, the amyloid nucleation score turned out to be 4.24 ± 0.074.

Turning to NGNRSHLELRCGWMSWCDRA, the amyloid nucleation score was -0.318 ± 0.55.

Consider IKYYVTVWSLESDTAWVGGL, for which the amyloid nucleation score is 0.196 ± 0.45.

In turn, KYCMRDDSSSLMYLWGCTRG displayed an amyloid nucleation score of -0.168 ± 0.29.

Take DYILLARYSRNVHCS: the amyloid nucleation score is -0.343 ± 0.37.
